± gives the uncertainty stated by the source.
Assay: self-splicing fitness, log relative to wild type (ln ratio); higher = more splicing; Tetrahymena group I intron in knt gene, E. coli kanamycin selection, DiMSum; sequences stand for … in CUCUCU…GGAGGGAAAAGUUAUCAGGCAUGCACCUGGUAGCUAGUCUUUAAACCAAUAGAUUGCAUCGGUUUAAAAGGCAAGACCGUCAAAUUGCGGGAAAGGGGUCAACAGCCGUUCAGUACCAAGUCUCAGGGGAAACUUUGAGAUGGCCUUGCAAAGGGUAUGGUAAUAAGCUGACGGACAUGGUCCUAACCACGCAGCCAAGUCCUAAGUCAACAGAUCUUCUGUUGAUAUGGAUGCAGUUCACAGACUAAAUGUCGGUCGGGGAAGAUGUAUUCUUCUCAUAAGAUAUAGUCGGACCUCUCCUUAAUGGGAGCUAGCGGAUGAAGUGAUGCAACACUGGAGCCGCUGGGAACUAAUUUGUAUGCGAAAGUAUAUUGAUUAGUUUUGGAGUACUCGUGGUCG
Summary of the method: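 Six replicate transformations of E. coli BL21(DE3) with a pET-22b(+) library were grown overnight at 37°C or 30°C. The library randomised all eight P1ex-region intron nucleotides, the intron lying in the knt kanamycin-resistance gene, and plates were LB agar with or without 25 μg/mL kanamycin plus 100 μg/mL carbenicillin, 50 μM IPTG and 0.2% rhamnose. Pooled colonies were amplicon-sequenced on an Illumina HiSeq 2500, and fitness is the DiMSum error-weighted combination of wild-type-normalised replicate fold changes, kanamycin versus none.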

| Sequence | self-splicing fitness (ln) (30 °C) | self-splicing fitness (ln) (37 °C) |
| --- | --- | --- |
| GGAUAGCAAUAUUACGCGGU | -2.47 ± 0.33 | -2.6 ± 0.38 |
| AGGAAGCAAUAUUACGGGCA | -1.55 ± 0.21 | -1.13 ± 0.23 |
| CGUUAGCAAUAUUACGGCUG | -0.2 ± 0.093 | -0.439 ± 0.12 |
| CAUAAGCAAUAUUACGCGUA | -1.76 ± 0.11 | -2.02 ± 0.16 |
| GGUUAGCAAUAUUACGAAUG | -0.2 ± 0.3 | -0.491 ± 0.33 |
| UGGUAGCAAUAUUACGGUUA | -0.381 ± 0.12 | 0.439 ± 0.15 |
| ACUCAGCAAUAUUACGCACU | -0.199 ± 0.064 | 0.205 ± 0.079 |
| UUGGAGCAAUAUUACGGGGA | -3.14 ± 0.28 | -2.72 ± 0.31 |
| ACAGAGCAAUAUUACGAGUA |  | -2.34 ± 0.27 |
| GACAAGCAAUAUUACGUAUA | -1.76 ± 0.15 | -1.79 ± 0.13 |
| AUUUAGCAAUAUUACGUAAC | -2.52 ± 0.18 | -2.58 ± 0.2 |
| ACACAGCAAUAUUACGACGC | -0.0854 ± 0.07 | 0.622 ± 0.093 |
| CCGAAGCAAUAUUACGUCGG | -3.35 ± 0.2 | -2.59 ± 0.31 |
| GAGGAGCAAUAUUACGGUAA | -3.65 ± 0.37 | -2.22 ± 0.36 |
| GAUAAGCAAUAUUACGGGUG | -1.09 ± 0.081 | -1.02 ± 0.099 |
| GGUCAGCAAUAUUACGGGGG |  | -2.15 ± 0.34 |
| CUCAAGCAAUAUUACGGCGA | -2.71 ± 0.2 | -1.87 ± 0.23 |
| GUAUAGCAAUAUUACGCUGC | -2.6 ± 0.48 | -0.913 ± 0.3 |
| ACAGAGCAAUAUUACGACGC | -1.19 ± 0.13 | -0.298 ± 0.14 |
| UCAAAGCAAUAUUACGCAUC | -3.83 ± 0.19 | -3.11 ± 0.31 |

| Sequence | self-splicing fitness (ln) (30 °C) | self-splicing fitness (ln) (37 °C) |
| --- | --- | --- |
| UCGUAGCAAUAUUACGGCAU | -3.93 ± 0.27 | -2.53 ± 0.28 |
| GAGAAGCAAUAUUACGACCA | -1.12 ± 0.18 | 0.744 ± 0.3 |
| GAGUAGCAAUAUUACGGUGC | -1.19 ± 0.15 | 0.00945 ± 0.18 |
| UAGAAGCAAUAUUACGUUGA | -2.99 ± 0.23 | -1.62 ± 0.18 |
| ACUGAGCAAUAUUACGCUGA | -2.19 ± 0.47 | -1.2 ± 0.34 |
| UGUUAGCAAUAUUACGACAG | -1.39 ± 0.17 | 0.0704 ± 0.2 |
| UACAAGCAAUAUUACGGGGU | -3.88 ± 0.15 | -2.58 ± 0.15 |
| AGCAAGCAAUAUUACGACGA | -0.884 ± 0.14 | -0.398 ± 0.16 |
| UACGAGCAAUAUUACGGUCC | -3.61 ± 0.43 |  |
| CGAGAGCAAUAUUACGUCGG | -2.51 ± 0.15 | -0.79 ± 0.15 |
| AUAGAGCAAUAUUACGGUCU | -1.2 ± 0.11 | -0.695 ± 0.15 |
| GCGCAGCAAUAUUACGCAAU | -1.56 ± 0.09 | -0.27 ± 0.1 |
| CGCGAGCAAUAUUACGGCAG | -0.761 ± 0.1 | -0.243 ± 0.13 |
| GACCAGCAAUAUUACGAAUG | -1.82 ± 0.071 | -1.49 ± 0.088 |
| AGCGAGCAAUAUUACGCCCA | -2.07 ± 0.39 | -1.52 ± 0.34 |
| UACGAGCAAUAUUACGGAGC | -2.66 ± 0.3 | -2.8 ± 0.32 |
| UUUUAGCAAUAUUACGAAAA | -1.13 ± 0.17 | -0.0479 ± 0.18 |
| UCACAGCAAUAUUACGUAAU | -3.25 ± 0.21 | -2.54 ± 0.29 |
| UCCCAGCAAUAUUACGUAUC | -3.32 ± 0.29 | -1.35 ± 0.2 |

Reference: the supplement of paper PMC7877785
